The text below walks through data of patent US20220267464A1.

This test deals with human CEACAM5 (carcinoembryonic antigen, CEA) on cells (human) (UniProt P06731). In words: flow cytometry, MKN45 cells. Also on record: unit not given beside the values. A general note: Flow cytometry measures light scatter and fluorescence of single cells or particles in a stream.
Chain of human CEACAM5 (carcinoembryonic antigen, CEA) on cells (human) (P06731 35-685 E398K limits assumed): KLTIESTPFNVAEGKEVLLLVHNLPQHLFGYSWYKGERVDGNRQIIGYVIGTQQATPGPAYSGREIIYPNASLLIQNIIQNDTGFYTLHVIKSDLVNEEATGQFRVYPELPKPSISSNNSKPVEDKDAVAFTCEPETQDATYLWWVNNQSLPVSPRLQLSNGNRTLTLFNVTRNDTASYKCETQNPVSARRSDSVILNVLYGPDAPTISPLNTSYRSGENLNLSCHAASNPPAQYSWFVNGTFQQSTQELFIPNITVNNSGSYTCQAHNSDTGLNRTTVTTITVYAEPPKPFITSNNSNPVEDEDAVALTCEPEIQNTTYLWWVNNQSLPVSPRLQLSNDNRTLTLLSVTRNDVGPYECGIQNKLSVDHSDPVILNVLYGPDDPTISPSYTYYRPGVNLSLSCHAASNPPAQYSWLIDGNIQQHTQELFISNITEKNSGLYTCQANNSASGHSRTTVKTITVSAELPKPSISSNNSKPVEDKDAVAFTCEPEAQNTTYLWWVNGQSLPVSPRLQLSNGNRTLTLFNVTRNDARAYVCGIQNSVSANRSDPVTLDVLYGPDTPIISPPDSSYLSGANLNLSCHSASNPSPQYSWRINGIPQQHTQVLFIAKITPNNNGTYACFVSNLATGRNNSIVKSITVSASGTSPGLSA

B1: P1AE3125 (antibody, IgG1, V domains shown)
VH: QVQLVQSGAEVKKPGASVKVSCKASGFNIKDSYMHWVRQAPGQGLEWMGWIDPENGDTEYAPKFQGRVTMTTDTSISTAYMELSRLRSDDTAVYYCNEGTPTGPYYFDYWGQGTLVTVSS
VL: DIQMTQSPSSLSASVGDRVTITCRASSSVSYMHWYQQKPGKAPKLLIYSTSNLASGVPSRFSGSGSGTDFTLTISSLQPEDFATYYCQQRSSYPLTFGGGTKLEIK
Regarding B1, the AUC came to 3140.
